Substitutions are numbered along the chain they refer to.
B1: Rh34 sdAb (VHH)
VHH: QVKLEESGGGLVQAGGSLRLSCAASGRTISLYAVGWFRRAPGKEREFVAAISWTDSSTYYADSVKGRFTISRDNAKNTVYLGMNSLNPEDTAVYYCAADVSIRGLQKYEYDYWGQGTQVTVSS
notes: also called Rh34 VHH
B2: H18 sdAb (VHH)
VHH: QVQLVESGGGLVQAGGSLRLSCTASGSIESINRMAWYRQAPGQQREFVARISKGGSTNYPDSVKGRFTISRDNAKNTVYLQMNSLKPEDTAVYYCAAGPVWEQFWGQGTQVTVSS
notes: also called H18 VHH
B3: R28-H2 (VHH)
VHH: EVQLVESGGGLVQPGGSLRLSCAASGRTFIAYAMGWFRQAPGKEREFVSAITNFAGGTTYYADSVKGRFTISRDNSKNTLYLQMNSLRAEDTAVYYCAADRSAQTMRQVRPVLPYWGQGTLVTVSS
B4: R28-H1 (VHH)
VHH: B3 VHH with E44G, R45L
B5: R28-H5 (VHH)
VHH: B3 VHH with E1Q, S49A, S76A, N78T, L80V
B6: R28-H4 (VHH)
VHH: B3 VHH with E1Q, S49A, S76A, N78T
B7: R28-H3 (VHH)
VHH: B3 VHH with E1Q, S49A
B8: M79-H4 (VHH)
VHH: QVQLVESGGGLVQPGGSLRLSCAASGSTFSSSSVGWYRQAPGQQRELVAAITSGGSTNTADSVKGRFTISRDNSKNTLYLQMNSLRAEDTAVYYCNVAGRNWVPISRYSPGPYWGQGTLVTVSS
B9: M79-H5 (VHH)
VHH: B8 VHH with S74A, L78V
B10: M79-H2 (VHH)
VHH: B8 VHH with Q1E, Q43K, Q44G, R45L, A49S
B11: M79-H3 (VHH)
VHH: B8 VHH with Q1E, Q43K, A49S

Target: T1, rhesus serum albumin (rhesus, UniProt Q28522 17-600)
T1 construct: also called RhSA
Test: SPR, single cycle kinetics, pH 5.5

Going from B1 to B2, the Kd falls from 167 nM to 42 nM (4-fold). The second binds more tightly here.

Target: T2, human serum albumin (human, UniProt P02768 25-609)
T2 construct: also called HSA
Test: SPR, single cycle kinetics, pH 5.5

Going from B1 to B2, the Kd falls from 129 nM to 46 nM (2.8-fold).

Target: T3, rat serum albumin (rat, UniProt P02770 25-608)
T3 construct: also called RSA
Test: SPR, single cycle kinetics, pH 7.4

B1: no binding.
B2: no binding.

B3 and B4 are within 1.5-fold of each other in Kd: 4.1 nM for the first, 5.3 nM for the second.

Compared with B5, B6 is 2.8-fold higher in Kd: 0.4 nM for the first, 1.1 nM for the second.

Going from B7 to B8, the Kd rises from 2.4 nM to 10 nM (4.2-fold). The first binds more tightly here.

Going from B9 to B10, the Kd falls from 20.2 nM to 10.4 nM (1.9-fold).

B11 gave a Kd of 8.7 nM.

Target: T1, rhesus serum albumin
Test: SPR, single cycle kinetics, pH 7.4

First: B1
Second: B2
The Kd of the first is 7-fold higher: 333 nM for the first, 47.6 nM for the second.

B3 and B4 are within 1.5-fold of each other in Kd: 2630 nM for the first, 2710 nM for the second.

Compared with B5, B6 is 12-fold higher in Kd: 145 nM for the first, 1740 nM for the second.

First: B7
Second: B8
The Kd of the first is 16-fold higher: 625 nM for the first, 38.7 nM for the second.

B9 and B10 are within 1.5-fold of each other in Kd: 86.5 nM for the first, 62.1 nM for the second.

B11 gave a Kd of 36.7 nM.

Target: T2, human serum albumin
Test: SPR, single cycle kinetics, pH 7.4

First: B1
Second: B2
The Kd of the first is 8.4-fold higher: 286 nM for the first, 33.9 nM for the second.

B3 and B4 are within 1.5-fold of each other in Kd: 147 nM for the first, 162 nM for the second.

B5 and B6 are within 1.5-fold of each other in Kd: 11.1 nM for the first, 11.5 nM for the second.

B7 and B8 are within 1.5-fold of each other in Kd: 51.3 nM for the first, 58.9 nM for the second.

B9 and B10 are within 1.5-fold of each other in Kd: 103 nM for the first, 76.2 nM for the second.

B11 gave a Kd of 53.3 nM.

Target: T1, rhesus serum albumin
Test: SPR, single cycle kinetics, pH 7.4
Remark: another data set of the same source

First: B1
Second: B2
The Kd of the first is 6.9-fold higher: 333 nM for the first, 48 nM for the second. The second binds more tightly here.

Target: T2, human serum albumin
Test: SPR, single cycle kinetics, pH 7.4
Remark: another data set of the same source

Compared with B1, B2 is 8.4-fold lower in Kd: 286 nM for the first, 34 nM for the second. The second binds more tightly here.

Target: T3, rat serum albumin
Test: SPR, single cycle kinetics, pH 5.5

Going from B3 to B4, the Kd rises from 1 nM to 6.5 nM (6.5-fold).

First: B5
Second: B6
The Kd of the first is 1.5-fold lower: 3.5 nM for the first, 5.3 nM for the second.

Going from B7 to B8, the Kd rises from 1.8 nM to 8.8 nM (4.9-fold). The first binds more tightly here.

B9 and B10 are within 1.5-fold of each other in Kd: 6.6 nM for the first, 5.9 nM for the second.

B11 showed a Kd of 12.2 nM.

Target: T1, rhesus serum albumin
Test: SPR, single cycle kinetics, pH 5.5
Remark: another data set of the same source

Going from B1 to B2, the Kd falls from 167 nM to 42.2 nM (4-fold). The second binds more tightly here.

Compared with B3, B4 is 23-fold lower in Kd: 668 nM for the first, 28.7 nM for the second.

First: B5
Second: B6
The Kd of the first is 47-fold lower: 7.3 nM for the first, 341 nM for the second.

Going from B7 to B8, the Kd falls from 1270 nM to 2.9 nM (440-fold).

First: B9
Second: B10
The Kd of the first is 1.6-fold higher: 4.2 nM for the first, 2.6 nM for the second. The second binds more tightly here.

B11 showed a Kd of 2.9 nM.

Target: T2, human serum albumin
Test: SPR, single cycle kinetics, pH 5.5
Remark: another data set of the same source

Going from B1 to B2, the Kd falls from 129 nM to 46.2 nM (2.8-fold).

Compared with B3, B4 is 2.3-fold higher in Kd: 6.6 nM for the first, 15.2 nM for the second.

Compared with B5, B6 is 26-fold higher in Kd: 2 nM for the first, 51.6 nM for the second.

First: B7
Second: B8
The Kd of the first is 5.6-fold higher: 47.2 nM for the first, 8.4 nM for the second.

B9 and B10 are within 1.5-fold of each other in Kd: 8.1 nM for the first, 6.5 nM for the second.

Work on B11 yielded a Kd of 9.6 nM.
